Assay [1] deals with thrombin (human). Briefly: kinetics of protease inhibition (second order rate constant k2, discontinuous method, residual protease activity); protease 5-75 nM, at least 10:1 molar ratio of AAT variant to protease (pseudo-first order), 37 °C, PPNE buffer (20 mM sodium phosphate pH 7.4, 100 mM NaCl, 0.1 mM EDTA, 0.1% polyethylene glycol 8000).
Assay [2] addresses Coagulation Factor XIa (human) (UniProt P03951). The description is as above.
Assay [3] has the same target. The description is as above. The source holds these as a separate data set.
Assay [4] shares this target. Briefly: stoichiometry of inhibition (SI) titration, residual FXIa activity; varying ratios of AAT variant to FXIa incubated at ambient temperature for 2 h; residual FXIa activity determined at 37 °C; regression to zero activity.
The target in assay [5] is Activated Protein C (human). Briefly: kinetics of protease inhibition (second order rate constant k2, discontinuous method, residual protease activity); protease 5-75 nM, at least 10:1 molar ratio of AAT variant to protease (pseudo-first order), 37 °C, PPNE buffer (20 mM sodium phosphate pH 7.4, 100 mM NaCl, 0.1 mM EDTA, 0.1% polyethylene glycol 8000).
Assay [6] concerns the target kallikrein (human). Described as above.
The target of assay [7] is Factor XIIa (human). Described as above.
For assay [8], the target named is Factor Xa (human). The assay is described as above.
Assay [9] concerns the target thrombin (human). Described as above. The source holds these as a separate data set.
In assay [10] the target is Coagulation Factor XIa (human) (UniProt P03951). The description is as above. The source holds these as a separate data set.

Like-named read-outs stand apart in the source and are kept apart here.

As for “AAT M358R (alpha-1 antitrypsin M358R), arabinose-inducible system (natural protein)”, the k2 (second order rate constant of inhibition) is 160000 M⁻¹ s⁻¹ in assay [1], 190000 M⁻¹ s⁻¹ in assay [2] and 180000 M⁻¹ s⁻¹ in assay [3].

Regarding “AAT M358R (alpha-1 antitrypsin M358R), cleavable GST fusion system (natural protein)”, the stoichiometry of inhibition (SI) in assay [4] stood at 2.1. For the same sequence, the k2 (second order rate constant of inhibition) in [5] came out at 40000 M⁻¹ s⁻¹; in assay [6], 40000 M⁻¹ s⁻¹; in assay [3] it was 170000 M⁻¹ s⁻¹; in assay [7], 23000 M⁻¹ s⁻¹; in [8] it was 35000 M⁻¹ s⁻¹; in [9], 210000 M⁻¹ s⁻¹. Moreover, the k2 (second order rate constant of inhibition) in assay [10] came to 160000 M⁻¹ s⁻¹.

“AAT M358R/HASTGQ, cleavable GST fusion system (designed binder)”: in [4], the stoichiometry of inhibition (SI) worked out at 12.7. For the same sequence, in [10], the k2 (second order rate constant of inhibition) was determined as 34000 M⁻¹ s⁻¹.

Regarding “AAT M358R/PRSLD, from the pBAD P2'/P3' bacterial expression library (designed binder)”, the k2 (second order rate constant of inhibition) in [3] came out at 38000.

For the sequence “AAT M358R/PRSTE, cleavable GST fusion system (designed binder)”, in assay [4], the stoichiometry of inhibition (SI) was found to be 3.3. Besides, the figures for the k2 (second order rate constant of inhibition) in [9] and in assay [10] were 1200 M⁻¹ s⁻¹ and 41000 M⁻¹ s⁻¹, respectively.

As for “AAT M358R/PRSTE, from the pBAD P2'/P3' bacterial expression library (designed binder)”, in assay [3], the k2 (second order rate constant of inhibition) is 45000.

For the sequence “AAT M358R/QSIIS, arabinose-inducible system (designed binder)”, in assay [1], the k2 (second order rate constant of inhibition) was found to be 100000 M⁻¹ s⁻¹.

The values above are taken from publication PMC7946950.
